Measured values: IntAct's records for PubMed 10230800

B1: Slowpoke-binding protein (Drosophila melanogaster (Fruit fly)), Q8IPH9 (parent)
chain: MFKFNKAAQQQRIDNRNSAVTGHDPFVRPPVPEKKVRNIMKKLHKANGLKRSNSAIEFDVSALTAANRRQIYSSNRSASSEQDNSDLSEHSEKSPLVSARLDNLARLFFSKSMPAETGSRDTIDSVLTTRPNIKYQYSALDSGNGIVERSPRERAQREKALNATQEWIQGANGRYEVIAHLDEIGSRHGKNWFLVTDASVRTDRLQTLLPLPPDCVAFEDLPPNECAREILMELLGSLHHPYIYPVLDLGFLRNSSYNYACLVTPFNSRGSLKDLIYKAQWNEPWARKYTRKPNGLPVSQVQRLGRQILEALLFLKERGFPLHGHLHSGNVILQNGAARLSGLENGLLGLSSRINAVMWSRSVTEIENVDIVCFGHLLYEMCTGQELTTPKPSMRVLEMELQHYPQIGQTRKQILEILGLIFEPPSGVCPSVEDLVLCDLFRSIDLRELRGPCFSTIKPSLSRSTLNLLQAVKKRQCASLGHSLSEANSPCTPPSTPHDRRTGVLPAPYEVFRMY
partner: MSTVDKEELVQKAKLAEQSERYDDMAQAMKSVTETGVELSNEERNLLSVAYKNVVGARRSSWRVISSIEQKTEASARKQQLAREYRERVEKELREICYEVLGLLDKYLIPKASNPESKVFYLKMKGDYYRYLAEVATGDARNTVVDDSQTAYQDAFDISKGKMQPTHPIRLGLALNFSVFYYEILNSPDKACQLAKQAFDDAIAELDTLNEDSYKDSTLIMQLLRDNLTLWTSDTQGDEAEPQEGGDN

Variants of: B1
Settings: with 1433z_drome 14-3-3zeta

Variant | effect of a mutation on the interaction
MFKFNKAAQQQRIDNRNSAVTGHDPFVRPPVPEKKVRNIMKKLHKANGLKRSNAAIEFDVSALTAANRRQIYSSNRSAASEQDNSDLSEHSEKSPLVSARLDNLARLFFSKSMPAETGSRDTIDSVLTTRPNIKYQYSALDSGNGIVERSPRERAQREKALNATQEWIQGANGRYEVIAHLDEIGSRHGKNWFLVTDASVRTDRLQTLLPLPPDCVAFEDLPPNECAREILMELLGSLHHPYIYPVLDLGFLRNSSYNYACLVTPFNSRGSLKDLIYKAQWNEPWARKYTRKPNGLPVSQVQRLGRQILEALLFLKERGFPLHGHLHSGNVILQNGAARLSGLENGLLGLSSRINAVMWSRSVTEIENVDIVCFGHLLYEMCTGQELTTPKPSMRVLEMELQHYPQIGQTRKQILEILGLIFEPPSGVCPSVEDLVLCDLFRSIDLRELRGPCFSTIKPSLSRSTLNLLQAVKKRQCASLGHSLSEANSPCTPPSTPHDRRTGVLPAPYEVFRMY [S54A;S79A] | decreasing interaction strength
